Experimental data: the supplement of paper PMC10724198
± gives the standard deviation of the averaged measurements.

Tests used:
Saccharomyces cerevisiae [1] = test: protein stability index of tFT-peptide fusion (C-terminal peptide) (PSI (0-1 scale)); higher = more stable (slower turnover)
Method: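 MPS profiling in S. cerevisiae of the tFT-X12 degron library: putative degron peptides plus stable controls, 12 aa, fused to the C-terminus of a sfGFP-mCherry timer. Cells are FACS-sorted into 8 mCherry/sfGFP bins and deep-sequenced. PSI runs from 0 (unstable) to 1 (stable). Backgrounds are wild type, das1Δ and doa10Δ at 30 °C, and wild type, das1Δ, cdc34-1 and cdc53-1 at 37 °C; 2-3 technical replicates each.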

Saccharomyces cerevisiae [2] = test: as above; conditions: genetic background: wild type; temperature: 30 C
[3] = genetic background: cdc34-1, temperature: 37 C
[4] = genetic background: cdc53-1, temperature: 37 C
[5] = genetic background: das1 deletion, temperature: 30 C
[6] = genetic background: das1 deletion, temperature: 37 C
[7] = genetic background: doa10 deletion, temperature: 30 C
[8] = genetic background: wild type, temperature: 30 C
[9] = genetic background: wild type, temperature: 37 C
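Note: PSI is a weighted mean of sequencing reads over stability bins, variants kept only with over 10 reads, mCherry proximal and sfGFP distal, peptide attached via GGGS linker.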

VFFPCRLLPLLF gave a protein stability index (Saccharomyces cerevisiae [1]; [3]) of 0.517 ± 0.0066, a protein stability index (Saccharomyces cerevisiae [1]; [4]) of 0.585 ± 0.0073 and a protein stability index (Saccharomyces cerevisiae [1]; [5]) of 0.479 ± 0.03. The protein stability index (Saccharomyces cerevisiae [1]; [6]) was 0.595 ± 0.026, the protein stability index (Saccharomyces cerevisiae [1]; [7]) was 0.1658 ± 0.0011 and the protein stability index (Saccharomyces cerevisiae [1]; [8]) was 0.167 ± 0.014. It also gave a protein stability index (Saccharomyces cerevisiae [1]; [9]) of 0.286 ± 0.01 and a protein stability index (Saccharomyces cerevisiae [2]) of 0.27 ± 0.023.

Work on VFFRVLVAGCRQ yielded a protein stability index (Saccharomyces cerevisiae [1]; [3]) of 0.537 ± 0.04, a protein stability index (Saccharomyces cerevisiae [1]; [4]) of 0.618 ± 0.021 and a protein stability index (Saccharomyces cerevisiae [1]; [5]) of 0.451 ± 0.022. For the same sequence, the protein stability index (Saccharomyces cerevisiae [1]; [6]) was 0.5761 ± 0.0052, the protein stability index (Saccharomyces cerevisiae [1]; [7]) was 0.449 ± 0.0066 and the protein stability index (Saccharomyces cerevisiae [1]; [8]) was 0.468 ± 0.0052. It also gave a protein stability index (Saccharomyces cerevisiae [1]; [9]) of 0.568 ± 0.028 and a protein stability index (Saccharomyces cerevisiae [2]) of 0.522 ± 0.084.

In the case of VFGCHHLEVSVC, the protein stability index (Saccharomyces cerevisiae [1]; [3]) is reported as 0.248 ± 0.012, the protein stability index (Saccharomyces cerevisiae [1]; [4]) is reported as 0.267 ± 0.0036 and the protein stability index (Saccharomyces cerevisiae [1]; [5]) is reported as 0.259 ± 0.034. The protein stability index (Saccharomyces cerevisiae [1]; [6]) was 0.377 ± 0.0065, the protein stability index (Saccharomyces cerevisiae [1]; [7]) was 0.203 ± 0.012 and the protein stability index (Saccharomyces cerevisiae [1]; [8]) was 0.241 ± 0.024. It also gave a protein stability index (Saccharomyces cerevisiae [1]; [9]) of 0.34 ± 0.012 and a protein stability index (Saccharomyces cerevisiae [2]) of 0.34 ± 0.0065.

Work on VFGVWVVVGCVG yielded a protein stability index (Saccharomyces cerevisiae [1]; [3]) of 0.028 ± 0.007, a protein stability index (Saccharomyces cerevisiae [1]; [4]) of 0.101 ± 0.03 and a protein stability index (Saccharomyces cerevisiae [1]; [5]) of 0.149 ± 0.037. The protein stability index (Saccharomyces cerevisiae [1]; [6]) was 0.215 ± 0.01, the protein stability index (Saccharomyces cerevisiae [1]; [7]) was 0.123 ± 0.019 and the protein stability index (Saccharomyces cerevisiae [1]; [8]) was 0.143 ± 0.013. For the same sequence, the protein stability index (Saccharomyces cerevisiae [1]; [9]) was 0.197 ± 0.013 and the protein stability index (Saccharomyces cerevisiae [2]) was 0.248 ± 0.0043.

With VFRECSFFLVCC the protein stability index (Saccharomyces cerevisiae [1]; [3]) was 0.255 ± 0.0076, the protein stability index (Saccharomyces cerevisiae [1]; [4]) was 0.287 ± 0.011 and the protein stability index (Saccharomyces cerevisiae [1]; [5]) was 0.281 ± 0.026. The protein stability index (Saccharomyces cerevisiae [1]; [6]) was 0.366 ± 0.0094, the protein stability index (Saccharomyces cerevisiae [1]; [7]) was 0.224 ± 0.0033 and the protein stability index (Saccharomyces cerevisiae [1]; [8]) was 0.252 ± 0.032. The protein stability index (Saccharomyces cerevisiae [1]; [9]) was 0.315 ± 0.016 and the protein stability index (Saccharomyces cerevisiae [2]) was 0.333 ± 0.036.

Sequence VFRHFYTFLALC has a protein stability index (Saccharomyces cerevisiae [1]; [3]) of 0.338 ± 0.043, a protein stability index (Saccharomyces cerevisiae [1]; [4]) of 0.414 ± 0.013 and a protein stability index (Saccharomyces cerevisiae [1]; [5]) of 0.472 ± 0.014. It also gave a protein stability index (Saccharomyces cerevisiae [1]; [6]) of 0.5932 ± 0.0029, a protein stability index (Saccharomyces cerevisiae [1]; [7]) of 0.111 ± 0.0013 and a protein stability index (Saccharomyces cerevisiae [1]; [8]) of 0.0988 ± 0.017. For the same sequence, the protein stability index (Saccharomyces cerevisiae [1]; [9]) was 0.132 ± 0.018 and the protein stability index (Saccharomyces cerevisiae [2]) was 0.16 ± 0.0087.

VFTGYSAFLLLC showed a protein stability index (Saccharomyces cerevisiae [1]; [3]) of 0.325 ± 0.011, a protein stability index (Saccharomyces cerevisiae [1]; [4]) of 0.578 ± 0.025 and a protein stability index (Saccharomyces cerevisiae [1]; [5]) of 0.487 ± 0.025. It also gave a protein stability index (Saccharomyces cerevisiae [1]; [6]) of 0.6366 ± 0.0041, a protein stability index (Saccharomyces cerevisiae [1]; [7]) of 0.0796 ± 0.016 and a protein stability index (Saccharomyces cerevisiae [1]; [8]) of 0.0748 ± 0.014. The protein stability index (Saccharomyces cerevisiae [1]; [9]) was 0.0721 ± 0.0049 and the protein stability index (Saccharomyces cerevisiae [2]) was 0.144 ± 0.011.

VGASLVVIAIGV showed a protein stability index (Saccharomyces cerevisiae [1]; [3]) of 0.5122 ± 0.0012, a protein stability index (Saccharomyces cerevisiae [1]; [4]) of 0.5401 ± 0.0048 and a protein stability index (Saccharomyces cerevisiae [1]; [5]) of 0.377 ± 0.034. It also gave a protein stability index (Saccharomyces cerevisiae [1]; [6]) of 0.5445 ± 0.0033, a protein stability index (Saccharomyces cerevisiae [1]; [7]) of 0.3442 ± 0.0029 and a protein stability index (Saccharomyces cerevisiae [1]; [8]) of 0.387 ± 0.012. It also gave a protein stability index (Saccharomyces cerevisiae [1]; [9]) of 0.5181 ± 0.0048 and a protein stability index (Saccharomyces cerevisiae [2]) of 0.466 ± 0.032.

Sequence VGKGAGVRDGSR has a protein stability index (Saccharomyces cerevisiae [1]; [3]) of 0.693 ± 0.068, a protein stability index (Saccharomyces cerevisiae [1]; [4]) of 0.751 ± 0.019 and a protein stability index (Saccharomyces cerevisiae [1]; [5]) of 0.623 ± 0.0077. It also gave a protein stability index (Saccharomyces cerevisiae [1]; [6]) of 0.7598 ± 0.0072, a protein stability index (Saccharomyces cerevisiae [1]; [7]) of 0.651 ± 0.017 and a protein stability index (Saccharomyces cerevisiae [1]; [8]) of 0.645 ± 0.011. It also gave a protein stability index (Saccharomyces cerevisiae [1]; [9]) of 0.713 ± 0.016 and a protein stability index (Saccharomyces cerevisiae [2]) of 0.707 ± 0.026.

VGLLFGWVWSLW gave a protein stability index (Saccharomyces cerevisiae [1]; [3]) of 0.644 ± 0.02, a protein stability index (Saccharomyces cerevisiae [1]; [4]) of 0.72401 ± 0.00029 and a protein stability index (Saccharomyces cerevisiae [1]; [5]) of 0.56 ± 0.026. For the same sequence, the protein stability index (Saccharomyces cerevisiae [1]; [6]) was 0.6999 ± 0.0055, the protein stability index (Saccharomyces cerevisiae [1]; [7]) was 0.5556 ± 0.0007 and the protein stability index (Saccharomyces cerevisiae [1]; [8]) was 0.545 ± 0.0096. It also gave a protein stability index (Saccharomyces cerevisiae [1]; [9]) of 0.674 ± 0.015 and a protein stability index (Saccharomyces cerevisiae [2]) of 0.485 ± 0.021.

Sequence VGLWFLCSLAFS has a protein stability index (Saccharomyces cerevisiae [1]; [3]) of 0.444 ± 0.0079, a protein stability index (Saccharomyces cerevisiae [1]; [4]) of 0.478 ± 0.015 and a protein stability index (Saccharomyces cerevisiae [1]; [5]) of 0.34 ± 0.037. The protein stability index (Saccharomyces cerevisiae [1]; [6]) was 0.5344 ± 0.0014, the protein stability index (Saccharomyces cerevisiae [1]; [7]) was 0.308 ± 0.015 and the protein stability index (Saccharomyces cerevisiae [1]; [8]) was 0.346 ± 0.023. For the same sequence, the protein stability index (Saccharomyces cerevisiae [1]; [9]) was 0.495 ± 0.007 and the protein stability index (Saccharomyces cerevisiae [2]) was 0.401 ± 0.006.

For VGYSLFTFLFCA, the protein stability index (Saccharomyces cerevisiae [1]; [3]) was 0.579 ± 0.014, the protein stability index (Saccharomyces cerevisiae [1]; [4]) was 0.6313 ± 0.0052 and the protein stability index (Saccharomyces cerevisiae [1]; [5]) was 0.481 ± 0.03. For the same sequence, the protein stability index (Saccharomyces cerevisiae [1]; [6]) was 0.6315 ± 0.0016, the protein stability index (Saccharomyces cerevisiae [1]; [7]) was 0.303 ± 0.011 and the protein stability index (Saccharomyces cerevisiae [1]; [8]) was 0.335 ± 0.017. It also gave a protein stability index (Saccharomyces cerevisiae [1]; [9]) of 0.51 ± 0.027 and a protein stability index (Saccharomyces cerevisiae [2]) of 0.432 ± 0.0057.

VIQKKKKNKITS gave a protein stability index (Saccharomyces cerevisiae [1]; [3]) of 0.617 ± 0.004, a protein stability index (Saccharomyces cerevisiae [1]; [4]) of 0.729 ± 0.014 and a protein stability index (Saccharomyces cerevisiae [1]; [5]) of 0.65 ± 0.022. The protein stability index (Saccharomyces cerevisiae [1]; [6]) was 0.7265 ± 0.0018, the protein stability index (Saccharomyces cerevisiae [1]; [7]) was 0.197 ± 0.011 and the protein stability index (Saccharomyces cerevisiae [1]; [8]) was 0.238 ± 0.013. It also gave a protein stability index (Saccharomyces cerevisiae [1]; [9]) of 0.408 ± 0.016 and a protein stability index (Saccharomyces cerevisiae [2]) of 0.346 ± 0.033.

VIVIQGFVFVLG gave a protein stability index (Saccharomyces cerevisiae [1]; [3]) of 0.2898 ± 0.0021, a protein stability index (Saccharomyces cerevisiae [1]; [4]) of 0.426 ± 0.033 and a protein stability index (Saccharomyces cerevisiae [1]; [5]) of 0.267 ± 0.033. The protein stability index (Saccharomyces cerevisiae [1]; [6]) was 0.482 ± 0.0059, the protein stability index (Saccharomyces cerevisiae [1]; [7]) was 0.234 ± 0.0035 and the protein stability index (Saccharomyces cerevisiae [1]; [8]) was 0.248 ± 0.035. For the same sequence, the protein stability index (Saccharomyces cerevisiae [1]; [9]) was 0.421 ± 0.0092 and the protein stability index (Saccharomyces cerevisiae [2]) was 0.279 ± 0.073.

For VLFSVWFFLVLV, the protein stability index (Saccharomyces cerevisiae [1]; [3]) was 0.0557 ± 0.017, the protein stability index (Saccharomyces cerevisiae [1]; [4]) was 0.0354 ± 0.0069 and the protein stability index (Saccharomyces cerevisiae [1]; [5]) was 0.122 ± 0.032. The protein stability index (Saccharomyces cerevisiae [1]; [6]) was 0.134 ± 0.0075, the protein stability index (Saccharomyces cerevisiae [1]; [7]) was 0.241 ± 0.015 and the protein stability index (Saccharomyces cerevisiae [1]; [8]) was 0.103 ± 0.035. It also gave a protein stability index (Saccharomyces cerevisiae [1]; [9]) of 0.127 ± 0.04 and a protein stability index (Saccharomyces cerevisiae [2]) of 0.117 ± 0.017.

VLVLLVCVAALV gave a protein stability index (Saccharomyces cerevisiae [1]; [3]) of 0.1393 ± 0.00032, a protein stability index (Saccharomyces cerevisiae [1]; [4]) of 0.222 ± 0.0053 and a protein stability index (Saccharomyces cerevisiae [1]; [5]) of 0.163 ± 0.023. For the same sequence, the protein stability index (Saccharomyces cerevisiae [1]; [6]) was 0.295 ± 0.017, the protein stability index (Saccharomyces cerevisiae [1]; [7]) was 0.1463 ± 0.00088 and the protein stability index (Saccharomyces cerevisiae [1]; [8]) was 0.163 ± 0.025. It also gave a protein stability index (Saccharomyces cerevisiae [1]; [9]) of 0.244 ± 0.014 and a protein stability index (Saccharomyces cerevisiae [2]) of 0.239 ± 0.0026.
